Measurements published in article PMC12522135, “Engineering a Coiled-Coil Protein for DARPin Presentation as a Potent SARS-CoV‑2 Therapeutic” (Biomacromolecules, 2025).

B1: Linear D3 (designed binder)
chain: DLGKKLLQAARAGQLDEVRELLKAGADVNAKDQEGITPLHVAAHQGHLEIVEVLLKAGADVNAKDVWGRTPLHLAAWRGHLEIVEVLLKAGADVNAKDHAGATPLHAAALSGHLEIVEVLLKAGADVNAQDKSGKTPADLAARAGHQDIAEVLQKAAGGGSGGGSGGGSGGGSDLGKKLLQAARAGQLDEVRELLKAGADVNAKDQEGITPLHVAAHQGHLEIVEVLLKAGADVNAKDVWGRTPLHLAAWRGHLEIVEVLLKAGADVNAKDHAGATPLHAAALSGHLEIVEVLLKAGADVNAQDKSGKTPADLAARAGHQDIAEVLQKAAGGGSGGGSGGGSGGGSDLGKKLLQAARAGQLDEVRELLKAGADVNAKDQEGITPLHVAAHQGHLEIVEVLLKAGADVNAKDVWGRTPLHLAAWRGHLEIVEVLLKAGADVNAKDHAGATPLHAAALSGHLEIVEVLLKAGADVNAQDKSGKTPADLAARAGHQDIAEVLQKAA
B2: HEX-D1 (designed binder)
chain: DLGKKLLQAARAGQLDEVRELLKAGADVNAKDREGITPLHLAAQHGHLEIVEVLLKAGADVNAKDVWGRTPLHLAAWQGHLEIVEVLLKAGADVNAKDLAGATPLHVAALYGHLEIVEVLLKAGADVNAQDKSGKTPADLAARAGHQDIAEVLQKAAGGGSGGGSGGGSGGGSGELKAIAQELKAIAKELKAIAWELKAIAQGAGGGGSGGGSGGGSGGGSDLGKKLLQAARAGQLDEVRELLKAGADVNAKDREGITPLHLAAQHGHLEIVEVLLKAGADVNAKDVWGRTPLHLAAWQGHLEIVEVLLKAGADVNAKDLAGATPLHVAALYGHLEIVEVLLKAGADVNAQDKSGKTPADLAARAGHQDIAEVLQKAA
B3: HEX-D2 (designed binder)
chain: DLGKKLLQAARAGQLDEVRELLKAGADVNAKDREGKTPLHVAAQEGHLEIVEVLLKAGADVNAKDVWGRTPLHLAAWIGHLEIVEVLLKAGADVNAKDVSGATPLHAAALHGHLEIVEVLLNAGADVNAQDKSGKTPADLAARAGHQDIAEVLQKAAGGGSGGGSGGGSGGGSGELKAIAQELKAIAKELKAIAWELKAIAQGAGGGGSGGGSGGGSGGGSDLGKKLLQAARAGQLDEVRELLKAGADVNAKDREGKTPLHVAAQEGHLEIVEVLLKAGADVNAKDVWGRTPLHLAAWIGHLEIVEVLLKAGADVNAKDVSGATPLHAAALHGHLEIVEVLLNAGADVNAQDKSGKTPADLAARAGHQDIAEVLQKAA
B4: HEX-D3 (designed binder)
chain: DLGKKLLQAARAGQLDEVRELLKAGADVNAKDQEGITPLHVAAHQGHLEIVEVLLKAGADVNAKDVWGRTPLHLAAWRGHLEIVEVLLKAGADVNAKDHAGATPLHAAALSGHLEIVEVLLKAGADVNAQDKSGKTPADLAARAGHQDIAEVLQKAAGGGSGGGSGGGSGGGSGELKAIAQELKAIAKELKAIAWELKAIAQGAGGGGSGGGSGGGSGGGSDLGKKLLQAARAGQLDEVRELLKAGADVNAKDQEGITPLHVAAHQGHLEIVEVLLKAGADVNAKDVWGRTPLHLAAWRGHLEIVEVLLKAGADVNAKDHAGATPLHAAALSGHLEIVEVLLKAGADVNAQDKSGKTPADLAARAGHQDIAEVLQKAA
B5: Linear D1 (designed binder)
chain: DLGKKLLQAARAGQLDEVRELLKAGADVNAKDREGITPLHLAAQHGHLEIVEVLLKAGADVNAKDVWGRTPLHLAAWQGHLEIVEVLLKAGADVNAKDLAGATPLHVAALYGHLEIVEVLLKAGADVNAQDKSGKTPADLAARAGHQDIAEVLQKAAGGGSGGGSGGGSGGGSDLGKKLLQAARAGQLDEVRELLKAGADVNAKDREGITPLHLAAQHGHLEIVEVLLKAGADVNAKDVWGRTPLHLAAWQGHLEIVEVLLKAGADVNAKDLAGATPLHVAALYGHLEIVEVLLKAGADVNAQDKSGKTPADLAARAGHQDIAEVLQKAAGGGSGGGSGGGSGGGSDLGKKLLQAARAGQLDEVRELLKAGADVNAKDREGITPLHLAAQHGHLEIVEVLLKAGADVNAKDVWGRTPLHLAAWQGHLEIVEVLLKAGADVNAKDLAGATPLHVAALYGHLEIVEVLLKAGADVNAQDKSGKTPADLAARAGHQDIAEVLQKAA
B6: Linear D2 (designed binder)
chain: DLGKKLLQAARAGQLDEVRELLKAGADVNAKDREGKTPLHVAAQEGHLEIVEVLLKAGADVNAKDVWGRTPLHLAAWIGHLEIVEVLLKAGADVNAKDVSGATPLHAAALHGHLEIVEVLLNAGADVNAQDKSGKTPADLAARAGHQDIAEVLQKAAGGGSGGGSGGGSGGGSDLGKKLLQAARAGQLDEVRELLKAGADVNAKDREGKTPLHVAAQEGHLEIVEVLLKAGADVNAKDVWGRTPLHLAAWIGHLEIVEVLLKAGADVNAKDVSGATPLHAAALHGHLEIVEVLLNAGADVNAQDKSGKTPADLAARAGHQDIAEVLQKAAGGGSGGGSGGGSGGGSDLGKKLLQAARAGQLDEVRELLKAGADVNAKDREGKTPLHVAAQEGHLEIVEVLLKAGADVNAKDVWGRTPLHLAAWIGHLEIVEVLLKAGADVNAKDVSGATPLHAAALHGHLEIVEVLLNAGADVNAQDKSGKTPADLAARAGHQDIAEVLQKAA

The binders below were run against SARS-CoV-2 RBD protein (SARS-CoV-2 (Wuhan-Hu-1), UniProt P0DTC2 319-541) (assay: BLI). Details: both partners purified.

Question: Which Kd does the source give for B1 here?
Answer: < 1 pM

Question: For B2, which Kd is on record?
Answer: < 1 pM

Question: With B3 as the binder, how does the Kd read?
Answer: < 1 pM

Question: With B4 as the binder, how does the Kd read?
Answer: < 1 pM

Question: Which Kd does the source give for B5 here?
Answer: < 1 pM

Question: For B6, which Kd is on record?
Answer: < 1 pM
